From patent US20100029554A1, “Composition and Methods for Treatment of Congestive Heart Failure” (Amylin Pharmaceuticals, Inc., priority 2006, published 2010)
Where no end group is shown, it is not given here. [ ]: non-standard residue; d: D form. Gly(octyl) = CCCCCCCC[C@H](N)C(=O)O

Key:
[1] = system: Sprague Dawley rats with MI-induced CHF; test: MI-induced CHF animal model; assay type: in vivo, rat; settings: subcutaneous infusion 11 weeks
Experimental: Sprague Dawley rats undergo left coronary artery ligation to induce myocardial infarction (MI) and subsequently congestive heart failure. Some rats undergo sham surgery. Starting two weeks after coronary ligation, rats are treated with GLP-1 (2.5 or 25 pmol/kg/min), [Leu^14]-Exendin-4 amide (1.67 or 5 pmol/kg/min) or vehicle for 11 weeks via subcutaneous infusion. Cardiac function and remodeling are assessed by echocardiography. At the end of study, rats undergo treadmill testing, hemodynamic measurements and fasting (12 hour fasting) insulin and glucose concentration were measured and the Homeostasis Model Assessment (HOMA), a major index for insulin resistance, is calculated. Peak Oxygen uptake during exercise is measured by indirect calorimetry.
Transthoracic Doppler echocardiography is performed. Briefly, short-axis images are obtained at the papillary muscle level and 2D guided M-mode tracing are recorded at a speed of 100 mm/s. Left ventricular end-diastolic (LVEDD) and end-systolic dimensions (LVESD) are measured according the American Society for Echocardiography leading-edge method. Left atrial volume (LAV) and ejection fraction (LVEF) are measured and calculated from the long-axis view.
Pulsed-wave Doppler spectra of mitral inflow are obtained from apical 5-chamber view. The sample volume is placed at the tip of the mitral leaflets and adjusted to the position of maximal velocity. The peak of early (E) and late filling waves (A) are measured and E/A ratio are calculated. […] FIG. 2A-C. […]
Designations “L” and “H” indicate low and high dose of drug, respectively. […] The end point for treadmill test is determined by rat's inability to keep the pace of treadmill and land on the electric shock grid for over 6 seconds. The exercise capacity (EC) is calculated as EC (kgm)=Body weight (kg)×degree of grade×running distance. Oxygen consumption (VO2), carbon dioxide production (VCO2) are measured as described. Within 1 minute after the treadmill test, plasma lactate and glucose are measured. The treadmill test is run and analyzed by one investigator who is blinded to the study.

[2] = system: NH/Swiss mice; test: Glucose lowering assay; assay type: in vivo, mouse; settings: IP
Experimental: Female NH/Swiss mice (˜8-20 weeks of age), (Harlan, Indianapolis, Ind., USA), housed 3 mice per cage, are allowed ad libitum access to food and water until the start of the experiment. At two hours prior to treatment, access to food is restricted.
At the time of treatment, the tip of the tail is pricked with a needle to obtain 1 μl blood as a “pre-treatment” control blood sample. Immediately thereafter, each mouse is injected intraperitoneally (IP) with a test sample (1 nmol/kg or 2 nmol/kg) or 200 μl vehicle (10% DMSO saline). Additional blood samples are collected at 30, 60, 120, 180, and 240 minutes after injection.
Blood glucose is measured with a glucose oxidase biosensor (OneTouch® Ultra® (LifeScan, Inc., a Johnson & Johnson Company, Milpitas, Calif.)). At each time point, the effect of the test sample is expressed as the percent change in blood glucose relative to mice injected with vehicle only. Test samples and vehicle controls are also compared to their respective “pre-treatment” controls.
Significant test sample effects are identified by ANOVA (p<0.05). Where a significant difference existed, test means are compared to the control mean with Dunnett's post test using GraphPad Prism version 4.00 for Windows, GraphPad Software, San Diego Calif. USA, www.graphpad.com).

[3] = system: NIH:Swiss mice; test: Food intake assay; assay type: in vivo, mouse; settings: IP
Experimental: All mice (NIH:Swiss mice) are housed in a stable environment of 22 (±2)° C., 60 (±10)% humidity and a 12:12 light:dark cycle; with lights on at 0300. Mice are housed in groups of three in standard cages with ad libitum access to food (Teklad: LM 485; Madison, Wis.) and water except as noted, for at least two weeks before the experiments.
All experiments are conducted between the hours of 0700 and 0900. The mice are food deprived (food removed at 1530 hr from all animals on day prior to experiment). […] The food pellet is weighed at 30-minute, 1-hr, and 2-hr intervals to determine the amount of food eaten.
Significant test sample effects are identified by ANOVA (p<0.05). Where a significicant difference exists, test means are compared to the control mean using Dunnett's test. One-way ANOVA with Dunnett's post test is performed using GraphPad Prism version 3.01 for Windows, GraphPad Software, San Diego Calif.

[4] = target: T1, GLP-1 receptor, endogenous in RINm5f cells (rat (RIN-m5F are called rat pancreas insulinoma cells)), P32301; test: cell-based or functional assay
T1 chain: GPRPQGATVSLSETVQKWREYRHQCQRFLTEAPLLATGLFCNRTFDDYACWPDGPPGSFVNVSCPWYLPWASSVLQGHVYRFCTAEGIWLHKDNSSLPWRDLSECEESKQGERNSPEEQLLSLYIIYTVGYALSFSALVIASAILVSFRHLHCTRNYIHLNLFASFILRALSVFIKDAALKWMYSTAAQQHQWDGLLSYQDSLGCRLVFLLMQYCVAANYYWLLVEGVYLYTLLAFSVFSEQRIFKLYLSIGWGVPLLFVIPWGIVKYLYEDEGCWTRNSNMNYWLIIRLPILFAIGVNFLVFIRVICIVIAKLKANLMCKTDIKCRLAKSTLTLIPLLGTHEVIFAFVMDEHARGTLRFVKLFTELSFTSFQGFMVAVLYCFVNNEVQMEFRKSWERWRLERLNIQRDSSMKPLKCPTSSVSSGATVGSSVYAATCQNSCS

[5] = target: T1, GLP-1 receptor, endogenous in RINm5f …; test: 125I-GLP-1 displacement, RINm5f membranes
[6] = target: T2, GLP-1 receptor, endogenous in RINm5f cells (rat (RIN-m5F are called rat pancreas …, UniProt P32301 22-463)); test: 125I-GLP-1 displacement, RINm5f membranes
T2 construct: whole, on cells; also called GLP-1 receptors; GLP (RIN)
T2 sequence (looked up): T1 chain

[7] = target: T2, GLP-1 receptor, endogenous in RINm5f …; test: cell-based or functional assay

Q: Which results are given for CC[C@H](C)[C@H](NC(=O)[C@H](Cc1ccccc1)NC(=O)[C@H](CCC(=O)O)NC(=O)[C@H](CCCCN)NC(=O)[C@H](C)NC(=O)[C@H](C)NC(=O)[C@H](CCC(N)=O)NC(=O)CNC(=O)[C@H](CCC(=O)O)NC(=O)[C@H](CC(C)C)NC(=O)[C@H](Cc1ccc(O)cc1)NC(=O)[C@H](CO)NC(=O)[C@H](CO)NC(=O)[C@@H](NC(=O)[C@H](CC(=O)O)NC(=O)[C@H](CO)NC(=O)[C@@H](NC(=O)[C@H](Cc1ccccc1)NC(=O)[C@@H](NC(=O)CNC(=O)[C@H](CCC(=O)O)NC(=O)[C@H](C)NC(=O)[C@@H](N)Cc1c[nH]cn1)[C@@H](C)O)[C@@H](C)O)C(C)C)C(=O)N[C@@H](C)C(=O)N[C@@H](Cc1c[nH]c2ccccc12)C(=O)N[C@@H](CC(C)C)C(=O)N[C@H](C(=O)N[C@@H](CCCCN)C(=O)NCC(=O)N[C@@H](CCCNC(=N)N)C(N)=O)C(C)C [Cmpd 3521, reference compound]?
A: baseline plasma lactate level [1]: attenuated baseline plasma lactate level; left ventricle chamber size (LVEDD, LVESD) [1]: attenuates enlargement of left ventricle chamber size; insulin resistance / insulin sensitivity (fasting insulin, glucose, HOMA) ([1]; 12 hour fasting): attenuates insulin resistance and improves insulin sensitivity; GLU LOWERING AUC240 @80 nmol/kg ([2]; 80 nmol/kg): −9% @; FOOD INTAKE at 60 min ([3]; dose 1 mg/kg): −27%

Q: Which results are given for CC[C@H](C)[C@H](NC(=O)[C@H](CC(C)C)NC(=O)[C@H](Cc1c[nH]c2ccccc12)NC(=O)[C@H](CCC(=O)O)NC(=O)[C@@H](NC(=O)[C@H](Cc1ccccc1)NC(=O)[C@H](CC(C)C)NC(=O)[C@H](CCCNC(=N)N)NC(=O)[C@@H](NC(=O)[C@H](C)NC(=O)[C@H](CCCCN)NC(=O)[C@H](CCC(=O)O)NC(=O)[C@H](CCC(=O)O)NC(=O)[C@H](CC(C)C)NC(=O)[C@H](CCC(N)=O)NC(=O)[C@H](CCCCN)NC(=O)[C@H](CO)NC(=O)[C@H](CC(C)C)NC(=O)[C@H](CC(=O)O)NC(=O)[C@H](CO)NC(=O)[C@@H](NC(=O)[C@H](Cc1ccccc1)NC(=O)[C@@H](NC(=O)CNC(=O)[C@H](CCC(=O)O)NC(=O)CNC(=O)[C@@H](N)Cc1c[nH]cn1)[C@@H](C)O)[C@@H](C)O)C(C)C)[C@@H](C)CC)C(=O)N[C@@H](CCC(N)=O)C(=O)NCC(=O)NCC(=O)N1CCC[C@H]1C(=O)N[C@@H](CO)C(=O)N[C@@H](CCCCN)C(=O)N[C@@H](CCC(=O)O)C(=O)N[C@H](C(=O)N[C@H](C(=O)N[C@@H](CO)C(=O)O)[C@@H](C)CC)[C@@H](C)CC [Cmpd 5103]?
A: GLU LOWERING AUC240 @2 nmol/kg ([2]; 2 nmol/kg, change in blood glucose relative to vehicle): −17%; FOOD INTAKE at 60 min ([3]; dose 10 nmol/kg): −42%

Q: With HAEGTFTSDVSSYLEGQAAKEFIAWLVKGRPSGGGIPI (modifications not checked) [Cmpd 4888] as the molecule, how does the cAMP, CYCLASE GLP/GIP/CT (RIN) EC50 [4] read?
A: 0.17 nM

Q: What about the IC50 [5] of the same molecule?
A: 0.13 nM

Q: Which cAMP, CYCLASE GLP/GIP/CT (RIN) EC50 [4] does the source give for HAEGTFTSDVSSYLEGQAAKEFIAWLVKGRGGG (not fully specified; modifications not checked) [Cmpd 4844, GLP-1-(7-37)-GG(S)-2,6-diamino-1-(thiazolidin-3-y1)hexan-1-one amide] here?
A: 0.13 nM

Q: How did the cAMP, CYCLASE GLP/GIP/CT (RIN) EC50 [4] turn out when HAEGTFTSDVSSYLEGQAAKEFIAWLVKGRGGG (not fully specified; modifications not checked) [Cmpd 4845, GLP-1-(7-37)-GG-(S)-2,6-diamino-1-(thiazolidin-2-cyano-3-y1)hexan-1-one amide] was run?
A: 0.4 nM

Q: HAEGTFTSDVSSYLEGQAAKEFIAWLVKGRGGGGIPI (modifications not checked) [Cmpd 4887] was tested. Which cAMP, CYCLASE GLP/GIP/CT (RIN) EC50 [4] did it give?
A: 0.22 nM

Q: What about the IC50 [5] of the same molecule?
A: 0.17 nM

Q: What does the source list for HGEGTFTSDLSKQLEEEAVRLFIEWLKNPGGKEIIS (tested as C-terminal acid (-OH)) [Cmpd 5296]?
A: IC50 [6]: 4 nM; cAMP, CYCLASE GLP/GIP/CT (RIN) EC50 [7]: 0.145 nM

Q: Which cAMP, CYCLASE GLP/GIP/CT (RIN) EC50 [4] does the source give for HAEGTFTSDVSSYLEGQAAKEFIAWLVKGRGGGIPI (modifications not checked) [Cmpd 4957] here?
A: 0.51 nM

Q: And the IC50 [5]?
A: 0.1 nM

B1: Cmpd 5269 (peptide)
peptide: HGEGTFTSDLSKQLEEEAVRLFIEFLKNGKPKK[Gly(octyl)]RYS-OH
modifications: N-terminus assumed
SMILES: CCCCCCCC[C@H](NC(=O)[C@H](CCCCN)NC(=O)[C@H](CCCCN)NC(=O)[C@@H]1CCCN1C(=O)[C@H](CCCCN)NC(=O)CNC(=O)[C@H](CC(N)=O)NC(=O)[C@H](CCCCN)NC(=O)[C@H](CC(C)C)NC(=O)[C@H](Cc1ccccc1)NC(=O)[C@H](CCC(=O)O)NC(=O)[C@@H](NC(=O)[C@H](Cc1ccccc1)NC(=O)[C@H](CC(C)C)NC(=O)[C@H](CCCNC(=N)N)NC(=O)[C@@H](NC(=O)[C@H](C)NC(=O)[C@H](CCC(=O)O)NC(=O)[C@H](CCC(=O)O)NC(=O)[C@H](CCC(=O)O)NC(=O)[C@H](CC(C)C)NC(=O)[C@H](CCC(N)=O)NC(=O)[C@H](CCCCN)NC(=O)[C@H](CO)NC(=O)[C@H](CC(C)C)NC(=O)[C@H](CC(=O)O)NC(=O)[C@H](CO)NC(=O)[C@@H](NC(=O)[C@H](Cc1ccccc1)NC(=O)[C@@H](NC(=O)CNC(=O)[C@H](CCC(=O)O)NC(=O)CNC(=O)[C@@H](N)Cc1c[nH]cn1)[C@@H](C)O)[C@@H](C)O)C(C)C)[C@@H](C)CC)C(=O)N[C@@H](CCCNC(=N)N)C(=O)N[C@@H](Cc1ccc(O)cc1)C(=O)N[C@@H](CO)C(=O)O
notes: tested as C-terminal acid (-OH)
Q: For B1, which IC50 [6] is on record?
A: 0.088 nM

Q: And the “cAMP, CYCLASE GLP/GIP/CT (RIN) EC50” value [7]?
A: 1.31 nM
